Data: patent WO2018102654A1 (dated 2018)

B1: LC2/HC2 humanized antibody (antibody, V domains shown)
VH: QVQLVQSGAEVKKPGATVKISCKASGFNIRDYYLHWVQQAPGKGLEWMGWIDPENGDTEYAPKFQGRVTITADTSTNTAYMELSSLRSEDTAVYYCNVYGIYFMDYWGQGTMVTVSS
VL: DIQLTQSPSSVSASVGDRVTITCRASSSISSNSLHWYQQKPGKAPKLLIYRTSNLQSGVPSRFSGSGSGTDYTLTISSLQPEDFATYYCQQGSSFPRMLTFGQGTKLEIKR
notes: CHO supernate in the ELISA; Protein A purified in the neutralization assay; also called mAbH; GIP mAbH
B2: 10g10 monoclonal antibody (original mouse mAb from hybridoma 10g10) (antibody, V domains shown)
VH: QVQLQESGAELVRSGASVKLSCTASGFNIRDYYLHWIKQRPEQGLEWIGWIDPENGDTEYAPKFQDKATVTADTSSNTAYLQLNSLTSEDTAVYYCNVYGIYFMDYWGQGTTVTVSS
VL: DIQLTQSPSTMAASPGEKITITCSASSSISSNSLHWYQQKPGFSPKLLIYRTSNLASGVPGRFSGSGSGTSYSLTIGTMETEDVATYYCQQGSSFPRMLTFGTGTKLEIKR
notes: Mouse antibody from a hybridoma; also called 10g10 mAb; 10g10 GIP mAb

Target: gastric inhibitory polypeptide (GIP), species not stated
Sequence (P09681 52-93): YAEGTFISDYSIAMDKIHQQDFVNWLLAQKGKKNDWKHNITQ
Assay: modified Schild's assay plot, reporter cell line expressing GIP receptors

Row | Binder | Kd
1 | B1 | 2200 nM
2 | B2 | 3200 nM
